US7230094B2, “Neutral sphingomyelinase antisense ribozyme and uses thereof” (priority 2001, dated 2007)

Experiments:
Type in all cases: cell-based, human
N-SMase [1] = experiment: Neutral sphingomyelinase activity in cell extracts, [14C]sphingomyelin substrate; settings: for Neutral SMase activity: MG-63 WT 2.7, L-3 LacZ/sham 2.1
Protocol: (§1) Confluent culture of cells were harvested, washed, and pellets lysed in buffer containing 0.1% Triton™ X-100, 25 mM Tris (pH 7.4) buffer, 5 mM EDTA, 1 mM phenylmethylsulfonylfluoride and 2 μg each of chymostatin, leupeptin, antipain, and pepstatin A. The activity levels of acid and neutral sphingomyelinase were measured in cell extracts (100 μg protein) in duplicate as described previously employing […] as the substrate.
(§2) Activities of A-SMase and N-SMase were also measured according to methods described in Chatterjee, S. and Ghosh, N. (1996) Glycobiology 6:303–311, incorporated herein by reference, with minor modifications. In brief, 5×10^6 MG63 cells were scraped from the culture plates, washed with PBS, and disrupted by repeated passage through a 25-gauge needle. Nuclei and cell debris were pelleted at 800×g for 5 min. Supernatant fluid was collected, and the protein concentration was measured using the Bio-Rad (Hercules, Calif.) protein detection kit. To measure SMase activity, 50 μg of protein was incubated for 90 min (the reaction was linear for up to 120 min) at 37° C. in buffer (200 μl final volume) containing 250 mM sodium acetate and 1 mM EDTA, pH 5.0, for A-SMase or 250 mM Tris-Cl, pH 7.4, with or without 6 mM MgCl2 for N-SMase, and 0.75 μl of [methyl-^14C]sphingomyelin (SM) (0.2 mCi/ml; 56.6 mCi/mmol). Radioactive phosphocholine produced from [^14C]SM was extracted with 800 μl of chloroform-methanol (2:1, vol/vol) and 100 μl of H2O. [^14C]phosphocholine in the aqueous phase was measured by scintillation counting.

A-SMase = experiment: Acid sphingomyelinase activity in cell extracts, [14C]sphingomyelin substrate; settings: for Acid SMase activity: MG-63 WT 2.7, L-3 LacZ/sham 2.3, average of two batches; for Reduction in A-SMase activity: ribozyme-transfected cells compared to sham-transfected and untransfected controls
Protocol: as §1, §2

MG-63 cells = experiment: Cell viability by trypan blue staining; settings: ribozyme transfected cells, 24 hours, trypan blue, FIG. 8
Protocol: FIG. 8 depicts the effect of TNF-α on viability of wild type, ribozyme transfected and wild type/mock transfected cells. Cells ([…]) were seeded in 96 well sterile plastic trays. Upon confluence medium was replaced with serum free minimum essential medium and TNF-α (20 ng/ml). After incubation for 24 h at 37° C., viability of cells were determined by Trypan blue staining. The results represent ±S.D. of three experiments.
The population of viable cells was determined using trypan blue staining. Cells (10^4) were seeded in 96 well plates. Twenty-four hours later, the media was replaced with serum-free MEM, and TNF-α in various concentrations was added. After incubation for 24 hours at 37° C., the cells were trypsinized, and viable cells were counted after staining with trypan blue. Values were compared to the original cell count (10^4) and expressed as a percentage.

N-SMase [2] = experiment: Western immunoblot and densitometric analysis of N-SMase; settings: mutant CC cells vs WT, FIG. 3
Protocol: (§3) FIG. 3 depicts a western immunoblot assay and densitometric analysis of N-SMase. About 10 μg of partially purified N-SMase preparations from WT (MG-63) and mutant (CC) cells were solubilized and subjected to 7.5% polyacrylamide SDS gel electrophoresis. The proteins were then transferred to PVDF membranes and subjected to a western immunoblot assay employing an N-SMase antibody or β-actin antibody (control). The immunoreactive protein bands were then subjected to densitometric scanning.
as §3, with “Western” for “FIG. 3 depicts a western”, “analysis was used to quantify the level” for “analysis”, “N-SMase in WT and CC cells.” for “N-SMase.”, “antibody.” for “antibody or β-actin antibody (control).”

N-SMase [3] = experiment: N-SMase activity gel analysis of partially purified preparations; settings: CC mutant cells compared to control cells, FIG. 2
Protocol: FIG. 2 depicts N-SMase activity in mutant and WT cells, as determined using gel analysis. Partially purified preparations of the MG-63 (WT) cell line and the mutant cell line CC were subjected to 7.5% polyacrylamide gel electrophoresis at 4° C. employing sodium lauryl sarcosine as the detergent. The gel was calibrated with pre-stained protein molecular weight standards (phosphorylase B, bovine serum albumin (BSA), and ovalbumin). Gel slices were excised and subjected to an N-SMase assay employing […] as the substrate.
N-SMase activity in mutant and WT cells (subjected to detergent extraction as described above), was determined using gel analysis. Partially purified preparations of the MG-63 (WT) cell line and the mutant cell line CC were subjected to 7.5% polyacrylamide gel electrophoresis at 4° C. employing sodium lauryl sarcosine as the detergent. The gel was calibrated with pre-stained protein molecular weight standards (phosphorylase B, bovine serum albumin (BSA), and ovalbumin; Bio-Rad). Gel slices were excised, transferred to glass tubes, and subjected to an N-SMase assay at pH 7.4 employing […] as the substrate.

N-SMase [4] = experiment: Immunocytochemical analysis of cells, N-SMase antibody; settings: clone CC compared to untransfected (WT) and sham-transfected (LacZ) lines
Protocol: (§4) Wild-type (WT) MG-63 cells and MG-63 cells transfected with LacZ constructs (L-3) and ribozyme expression constructs for the inhibition of N-SMase expression (CC) were analyzed by immunocytochemistry. The antibodies either recognized epitopes in fibronectin (control) or N-SMase. The analysis was performed in duplicates for the MG-63 cell line and the two mutant colonies.

fibronectin = experiment: Immunocytochemical analysis of cells, fibronectin antibody (specificity control); settings: lines harboring pU1/N-SMase vs pZeoSVLacZ vs untransfected cells
Protocol: as §4

[5] = test system: ceramide production by N-SMase; experiment: Ceramide level, modified diacylglycerol kinase assay; settings: for Production of ceramide in response to cytokine stimulation: ribozyme-transfected (N-SMase-deficient) cells compared to sham transfected cells, TNF-α 20 ng/ml or Fas-L 1 ng/ml, 24 hours

B1: N-SMase ribozyme: U1 snRNA-derived hammerhead antisense ribozyme targeting N-SMase mRNA, expressed from vector pNSMRz; stably transfected MG63 clones CC and C-B (nucleic acid, listed as Homo sapiens)
chain: AUACUUACCUGGCAGGGGAGAUACCAUGAUCACGAAGGUGGUUUUCCCAGGGCGAGGCUUAUCCAUUGGCCUCCGGAUGUGCUGACCCCUGCGAUUUCCCCAAAUGUGGGAAACUCGACUGCAGAAUAUGUCAUCAUAUUGCCUGAUGAGUCCGUGAGGACGAAACCUCUUCACAUGAAAAAGUGGGGCUGCGUUCGCGCUUCCCCG
For B1, which “Neutral SMase activity” value (N-SMase [1]; MG-63 clone C-B (ribozyme-transfected mutant), average of two batches) is on record?
Its value is 1.0 nmol/mg protein/hr.

What about the “Neutral SMase activity” value (N-SMase [1]; MG-63 clone CC (ribozyme-transfected mutant), average of two batches of cell pellets) of the same molecule?
Its value is 0.67 nmol/mg protein/hr.

What about the “Reduction in N-SMase activity” value (N-SMase [1]; ribozyme-transfected cells compared to sham-transfected and untransfected controls) of the same molecule?
Its value is “three-fold reduction”.

And the “Acid SMase activity” value (A-SMase; MG-63 clone C-B (mutant))?
Its value is 2.2 nmol/mg protein/hr.

What about the “Acid SMase activity” value (A-SMase; MG-63 clone CC (mutant)) of the same molecule?
The value was 2.1 nmol/mg protein/hr.

And the “Reduction in A-SMase activity” value (A-SMase)?
Its value is “unchanged”.

And the “Reduction in A-SMase activity” value (A-SMase; listed as ribozyme)?
Its value is “no discernable reduction”.

What about the “Decline in viable cells over a wide range of TNF-α concentrations” value (MG-63 cells) of the same molecule?
The value was “no significant decline”.

What about the “Level of N-SMase by western immunoblot densitometry” value (N-SMase [2]) of the same molecule?
The value was “greatly reduced”.

And the “Level of N-SMase activity in gel slices” value (N-SMase [3])?
Its value is “greatly reduced”.

And the “Immunohistochemical staining for N-SMase” value (N-SMase [4])?
The value was “near absence”.

And the “Immunohistochemical staining with monoclonal antibody to fibronectin” value (fibronectin)?
The value was “No differences were observed”.

And the “Production of ceramide in response to cytokine stimulation” value ([5]; listed as antisense ribozyme)?
The value was “substantially no change”.

What about the “Production of ceramide in response to cytokine stimulation” value ([5]; listed as ribozyme) of the same molecule?
Its value is “severely reduced”.

And the “Basal level of ceramide production” value ([5]; ribozyme-transfected CC cells, 2.63 in MG-63 control cells)?
The value was 4.59 pmole/mg protein.
